Columns and labels:
[1] = target: ZIM3 reprogrammed with array DPH1T2F8 (synthetic construct, UniProt Q96PE6 1-166); assay: Zn; HEK293T, RT-qPCR 3 days after transfection
[2] = target: ZIM3 reprogrammed with array UBE4A T1F8 (synthetic construct, UniProt Q96PE6 1-166); assay: Zn; HEK293T, RT-qPCR 3 days after transfection
[3] = target: T1, KLF6 reprogrammed with array CDKN1C_200 (synthetic construct, UniProt Q99612 1-199); assay: Zn; HEK293T, RT-qPCR 3 days after transfection
T1 chain: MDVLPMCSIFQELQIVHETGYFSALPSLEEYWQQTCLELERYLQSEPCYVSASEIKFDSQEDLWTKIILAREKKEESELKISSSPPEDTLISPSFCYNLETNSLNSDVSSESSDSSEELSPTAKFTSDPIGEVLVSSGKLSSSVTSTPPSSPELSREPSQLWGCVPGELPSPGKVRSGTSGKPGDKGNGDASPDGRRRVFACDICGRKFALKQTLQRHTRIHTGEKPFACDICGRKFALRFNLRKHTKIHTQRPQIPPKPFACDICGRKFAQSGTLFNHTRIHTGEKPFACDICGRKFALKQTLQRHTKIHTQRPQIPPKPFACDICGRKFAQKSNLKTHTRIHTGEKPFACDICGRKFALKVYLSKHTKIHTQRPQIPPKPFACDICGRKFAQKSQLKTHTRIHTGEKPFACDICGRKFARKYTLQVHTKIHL

[4] = target: T2, KLF6 reprogrammed with array CDKN1C_200 F3-8 (synthetic construct, UniProt Q99612 1-199); assay: Zn; HEK293T, RT-qPCR 3 days after transfection
T2 chain: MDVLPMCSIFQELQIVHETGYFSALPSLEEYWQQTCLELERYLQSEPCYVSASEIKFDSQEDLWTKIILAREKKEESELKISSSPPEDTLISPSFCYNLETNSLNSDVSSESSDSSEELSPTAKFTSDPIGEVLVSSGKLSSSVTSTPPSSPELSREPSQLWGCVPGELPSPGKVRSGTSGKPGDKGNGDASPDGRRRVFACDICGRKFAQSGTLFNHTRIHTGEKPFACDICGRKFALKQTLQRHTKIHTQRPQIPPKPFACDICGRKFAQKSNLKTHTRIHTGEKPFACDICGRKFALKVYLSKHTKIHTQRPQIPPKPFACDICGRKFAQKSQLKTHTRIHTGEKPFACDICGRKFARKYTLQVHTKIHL

[5] = target: T3, KLF6 reprogrammed with array CDKN1C_200 8Q (synthetic construct, UniProt Q99612 1-199); assay: Zn; HEK293T, RT-qPCR 3 days after transfection; conditions: tags: C-terminal linker + 3xFLAG (left out)
T3 chain: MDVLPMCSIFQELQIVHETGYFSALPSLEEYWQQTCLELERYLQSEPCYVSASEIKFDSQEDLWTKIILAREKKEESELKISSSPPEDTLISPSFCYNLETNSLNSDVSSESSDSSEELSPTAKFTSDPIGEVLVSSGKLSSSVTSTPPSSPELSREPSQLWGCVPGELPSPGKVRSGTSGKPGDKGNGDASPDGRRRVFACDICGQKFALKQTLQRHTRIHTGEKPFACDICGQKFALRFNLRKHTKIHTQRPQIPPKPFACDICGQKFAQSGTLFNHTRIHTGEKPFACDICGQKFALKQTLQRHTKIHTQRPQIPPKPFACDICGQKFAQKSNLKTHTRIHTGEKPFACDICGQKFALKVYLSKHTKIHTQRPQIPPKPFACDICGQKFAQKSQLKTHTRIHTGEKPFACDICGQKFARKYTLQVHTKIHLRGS

[6] = target: ZFN pair 18BC_designed + 18ED_designed (synthetic construct, UniProt P14870;P14870 384-579;384-579); assay: Zn; U2OS eGFP disruption, 3 days after nucleofection; conditions: tags: N-terminal 3xFLAG and SV40 NLS (kept in the assay, left out here); copies: 1;1
[7] = target: ZFN pair 18BC_selected + 18ED_selected (synthetic construct, UniProt P14870;P14870 384-579;384-579); assay: as above; conditions: tags: N-terminal 3xFLAG and SV40 NLS (kept in the assay, left out here); copies: 1;1
[8] = target: ZIM3 reprogrammed with array DPH1T2R8 (synthetic construct, UniProt Q96PE6 1-166); assay: Zn; HEK293T, RT-qPCR 3 days after transfection
Sequence of ZIM3 reprogrammed with array DPH1T2R8 (Q96PE6 other isoform, or with tags, fused parts or gaps): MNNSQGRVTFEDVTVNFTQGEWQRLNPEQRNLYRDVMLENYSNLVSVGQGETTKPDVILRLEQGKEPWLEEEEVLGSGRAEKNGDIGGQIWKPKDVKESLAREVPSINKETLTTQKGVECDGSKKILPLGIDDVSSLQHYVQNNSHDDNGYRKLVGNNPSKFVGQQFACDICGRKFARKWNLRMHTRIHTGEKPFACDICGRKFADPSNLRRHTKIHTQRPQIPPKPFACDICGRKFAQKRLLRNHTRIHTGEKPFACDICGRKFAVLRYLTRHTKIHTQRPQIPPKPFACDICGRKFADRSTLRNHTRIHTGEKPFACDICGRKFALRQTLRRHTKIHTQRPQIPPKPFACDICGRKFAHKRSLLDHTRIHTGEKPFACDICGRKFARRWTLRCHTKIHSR

[9] = target: ZFN pair 12BC_designed + 12ED_designed (synthetic construct, UniProt P14870;P14870 384-579;384-579); assay: Zn; U2OS eGFP disruption, 3 days after nucleofection; conditions: tags: N-terminal 3xFLAG and SV40 NLS (kept in the assay, left out here); copies: 1;1
[10] = target: T4, ZFN pair 12BC_selected + 12ED_selected (synthetic construct, UniProt P14870;P14870 384-579;384-579); assay: as above; conditions: tags: N-terminal 3xFLAG and SV40 NLS (kept in the assay, left out here); copies: 1;1
T4 chain 1: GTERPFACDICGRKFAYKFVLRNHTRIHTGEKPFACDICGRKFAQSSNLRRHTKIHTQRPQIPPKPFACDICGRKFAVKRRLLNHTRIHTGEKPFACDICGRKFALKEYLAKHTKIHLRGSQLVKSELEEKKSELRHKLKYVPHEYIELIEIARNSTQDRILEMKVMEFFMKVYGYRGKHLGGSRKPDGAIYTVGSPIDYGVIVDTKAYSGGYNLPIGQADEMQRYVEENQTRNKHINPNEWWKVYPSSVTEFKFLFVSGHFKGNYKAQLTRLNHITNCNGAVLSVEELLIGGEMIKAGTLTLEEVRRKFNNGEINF
T4 chain 2: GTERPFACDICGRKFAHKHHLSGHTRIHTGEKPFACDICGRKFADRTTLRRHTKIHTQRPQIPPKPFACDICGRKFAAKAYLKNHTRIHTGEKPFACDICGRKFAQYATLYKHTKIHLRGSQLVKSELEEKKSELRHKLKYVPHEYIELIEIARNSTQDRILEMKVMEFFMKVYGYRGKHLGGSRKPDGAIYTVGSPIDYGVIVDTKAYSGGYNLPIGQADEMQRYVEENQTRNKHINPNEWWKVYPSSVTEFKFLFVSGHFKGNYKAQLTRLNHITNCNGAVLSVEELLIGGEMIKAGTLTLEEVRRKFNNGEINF

[11] = target: ZFN pair 12BC_substituted + 12ED_substituted (synthetic construct, UniProt P14870;P14870 384-579;384-579); assay: as above; conditions: tags: N-terminal 3xFLAG and SV40 NLS (kept in the assay, left out here); copies: 1;1
[12] = target: ZIM3 reprogrammed with array DPH1TSSR (synthetic construct, UniProt Q96PE6 1-166); assay: Zn; HEK293T, RT-qPCR 3 days after transfection
Sequence of ZIM3 reprogrammed with array DPH1TSSR (Q96PE6 other isoform, or with tags, fused parts or gaps): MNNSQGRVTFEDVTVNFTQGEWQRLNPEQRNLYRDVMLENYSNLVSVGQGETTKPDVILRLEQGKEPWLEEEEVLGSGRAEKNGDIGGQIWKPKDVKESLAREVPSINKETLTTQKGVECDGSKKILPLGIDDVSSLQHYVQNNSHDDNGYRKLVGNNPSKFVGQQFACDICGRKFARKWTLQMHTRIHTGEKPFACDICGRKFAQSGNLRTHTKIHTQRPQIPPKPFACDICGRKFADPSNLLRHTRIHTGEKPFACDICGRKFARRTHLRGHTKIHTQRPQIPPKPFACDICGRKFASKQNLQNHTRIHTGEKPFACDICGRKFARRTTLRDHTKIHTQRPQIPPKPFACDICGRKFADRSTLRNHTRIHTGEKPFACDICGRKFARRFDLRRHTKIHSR

[13] = target: ZFN pair 10BC_substituted + 10ED_substituted (synthetic construct, UniProt P14870;P14870 384-579;384-579); assay: Zn; U2OS eGFP disruption, 3 days after nucleofection; conditions: tags: N-terminal 3xFLAG and SV40 NLS (kept in the assay, left out here); copies: 1;1
[14] = target: ZFN pair 10BC_selected + 10ED_selected (synthetic construct, UniProt P14870;P14870 384-579;384-579); assay: as above; conditions: tags: N-terminal 3xFLAG and SV40 NLS (kept in the assay, left out here); copies: 1;1
[15] = target: ZFN pair 10BC_designed + 10ED_designed (synthetic construct, UniProt P14870;P14870 384-579;384-579); assay: as above; conditions: tags: N-terminal 3xFLAG and SV40 NLS (kept in the assay, left out here); copies: 1;1
array CDKN1C 125RC = array CDKN1C 125RC (synthetic construct); assay: Zn; HEK293T, RNA-seq; conditions: tags: N-terminal SV40 NLS, C-terminal GS linker + VP64 (left out)
Sequence of array CDKN1C 125RC (synthetic construct) (chain, as listed by the source): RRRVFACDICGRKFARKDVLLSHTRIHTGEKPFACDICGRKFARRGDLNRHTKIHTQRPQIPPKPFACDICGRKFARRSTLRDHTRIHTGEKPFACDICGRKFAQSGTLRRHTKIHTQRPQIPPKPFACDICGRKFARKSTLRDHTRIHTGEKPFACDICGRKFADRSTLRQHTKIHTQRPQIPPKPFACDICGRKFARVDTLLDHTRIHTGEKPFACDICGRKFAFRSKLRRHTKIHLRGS

[16] = target: ZIM3 reprogrammed with array Rab1a T2R8 (synthetic construct, UniProt Q96PE6 1-166); assay: Zn; HEK293T, RT-qPCR 3 days after transfection
Sequence of ZIM3 reprogrammed with array Rab1a T2R8 (Q96PE6 other isoform, or with tags, fused parts or gaps): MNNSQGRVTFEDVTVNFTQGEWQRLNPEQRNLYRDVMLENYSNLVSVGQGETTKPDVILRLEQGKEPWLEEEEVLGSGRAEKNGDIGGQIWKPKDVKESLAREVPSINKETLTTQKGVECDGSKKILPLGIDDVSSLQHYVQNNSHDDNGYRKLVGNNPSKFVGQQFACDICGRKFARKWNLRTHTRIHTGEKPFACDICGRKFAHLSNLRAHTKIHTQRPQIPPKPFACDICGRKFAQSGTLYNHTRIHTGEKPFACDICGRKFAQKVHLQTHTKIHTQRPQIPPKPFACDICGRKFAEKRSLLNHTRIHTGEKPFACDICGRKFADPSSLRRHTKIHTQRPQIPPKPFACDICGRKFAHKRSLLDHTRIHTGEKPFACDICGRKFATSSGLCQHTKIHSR

[17] = target: ZIM3 reprogrammed with array UBE4A T1R8 (synthetic construct, UniProt Q96PE6 1-166); assay: Zn; HEK293T, RT-qPCR 3 days after transfection
Sequence of ZIM3 reprogrammed with array UBE4A T1R8 (Q96PE6 other isoform, or with tags, fused parts or gaps): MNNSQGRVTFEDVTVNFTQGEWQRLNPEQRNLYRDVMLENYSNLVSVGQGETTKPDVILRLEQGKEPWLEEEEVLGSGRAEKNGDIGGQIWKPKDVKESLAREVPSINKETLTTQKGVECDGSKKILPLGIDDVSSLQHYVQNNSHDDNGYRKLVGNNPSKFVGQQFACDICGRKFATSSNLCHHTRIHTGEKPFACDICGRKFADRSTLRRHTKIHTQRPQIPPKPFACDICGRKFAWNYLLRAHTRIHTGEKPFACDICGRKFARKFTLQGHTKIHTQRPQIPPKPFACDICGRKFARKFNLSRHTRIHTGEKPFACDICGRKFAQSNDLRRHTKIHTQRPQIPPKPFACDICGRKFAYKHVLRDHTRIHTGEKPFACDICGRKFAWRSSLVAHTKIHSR

[18] = target: ZIM3 reprogrammed with array DPH1_15 F1-6 (synthetic construct, UniProt Q96PE6 1-166); assay: Zn; HEK293T, RT-qPCR 3 days after transfection
Sequence of ZIM3 reprogrammed with array DPH1_15 F1-6 (Q96PE6 other isoform, or with tags, fused parts or gaps): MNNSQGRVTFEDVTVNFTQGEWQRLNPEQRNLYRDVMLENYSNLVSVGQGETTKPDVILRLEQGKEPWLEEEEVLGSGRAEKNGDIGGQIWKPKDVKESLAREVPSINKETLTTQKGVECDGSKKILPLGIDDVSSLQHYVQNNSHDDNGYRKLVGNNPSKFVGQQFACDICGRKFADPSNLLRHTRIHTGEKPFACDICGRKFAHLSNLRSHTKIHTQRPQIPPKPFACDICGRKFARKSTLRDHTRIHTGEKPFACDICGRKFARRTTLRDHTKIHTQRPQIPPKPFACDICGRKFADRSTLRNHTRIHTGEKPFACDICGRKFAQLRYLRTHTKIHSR

[19] = target: ZIM3 reprogrammed with array DPH1_15 (synthetic construct, UniProt Q96PE6 1-166); assay: Zn; HEK293T, RT-qPCR 3 days after transfection
Sequence of ZIM3 reprogrammed with array DPH1_15 (Q96PE6 other isoform, or with tags, fused parts or gaps): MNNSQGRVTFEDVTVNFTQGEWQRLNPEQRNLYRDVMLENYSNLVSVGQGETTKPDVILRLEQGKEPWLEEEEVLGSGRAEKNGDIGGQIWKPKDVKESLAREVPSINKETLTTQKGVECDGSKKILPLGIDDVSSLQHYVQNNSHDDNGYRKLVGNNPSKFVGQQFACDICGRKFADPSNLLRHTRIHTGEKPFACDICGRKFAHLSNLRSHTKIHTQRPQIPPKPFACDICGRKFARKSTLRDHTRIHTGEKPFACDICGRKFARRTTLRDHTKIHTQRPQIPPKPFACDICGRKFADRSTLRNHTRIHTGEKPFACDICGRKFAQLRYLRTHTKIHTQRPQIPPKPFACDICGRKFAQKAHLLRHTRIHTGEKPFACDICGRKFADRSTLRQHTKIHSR

[20] = target: ZIM3 reprogrammed with array DPH1_15 F1-8 Q (synthetic construct, UniProt Q96PE6 1-166); assay: Zn; HEK293T, RT-qPCR 3 days after transfection
Sequence of ZIM3 reprogrammed with array DPH1_15 F1-8 Q (Q96PE6 other isoform, or with tags, fused parts or gaps): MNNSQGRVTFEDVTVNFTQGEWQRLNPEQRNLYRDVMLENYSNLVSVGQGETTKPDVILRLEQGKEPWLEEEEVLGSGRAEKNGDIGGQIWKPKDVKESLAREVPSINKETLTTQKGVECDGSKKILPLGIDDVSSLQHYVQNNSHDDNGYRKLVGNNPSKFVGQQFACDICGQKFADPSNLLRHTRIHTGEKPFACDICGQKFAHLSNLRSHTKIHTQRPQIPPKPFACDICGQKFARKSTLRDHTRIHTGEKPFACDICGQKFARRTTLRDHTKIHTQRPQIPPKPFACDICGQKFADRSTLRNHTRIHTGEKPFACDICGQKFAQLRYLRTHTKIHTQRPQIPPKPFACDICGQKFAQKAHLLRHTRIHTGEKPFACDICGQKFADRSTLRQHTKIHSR

[21] = target: ZIM3 reprogrammed with array DPH1_15 F3-8 (synthetic construct, UniProt Q96PE6 1-166); assay: Zn; HEK293T, RT-qPCR 3 days after transfection
Sequence of ZIM3 reprogrammed with array DPH1_15 F3-8 (Q96PE6 other isoform, or with tags, fused parts or gaps): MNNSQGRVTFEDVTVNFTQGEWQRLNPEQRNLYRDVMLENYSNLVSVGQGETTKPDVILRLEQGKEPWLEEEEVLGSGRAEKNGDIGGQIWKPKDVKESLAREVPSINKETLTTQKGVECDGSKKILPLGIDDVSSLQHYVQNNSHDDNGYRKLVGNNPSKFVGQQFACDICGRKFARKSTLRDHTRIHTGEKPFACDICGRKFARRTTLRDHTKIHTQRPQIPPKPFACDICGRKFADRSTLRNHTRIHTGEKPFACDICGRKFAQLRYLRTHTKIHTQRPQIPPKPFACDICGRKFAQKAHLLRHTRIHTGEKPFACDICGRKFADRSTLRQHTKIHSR

Sequence of ZIM3 reprogrammed with array DPH1T2F8 (Q96PE6 other isoform, or with tags, fused parts or gaps): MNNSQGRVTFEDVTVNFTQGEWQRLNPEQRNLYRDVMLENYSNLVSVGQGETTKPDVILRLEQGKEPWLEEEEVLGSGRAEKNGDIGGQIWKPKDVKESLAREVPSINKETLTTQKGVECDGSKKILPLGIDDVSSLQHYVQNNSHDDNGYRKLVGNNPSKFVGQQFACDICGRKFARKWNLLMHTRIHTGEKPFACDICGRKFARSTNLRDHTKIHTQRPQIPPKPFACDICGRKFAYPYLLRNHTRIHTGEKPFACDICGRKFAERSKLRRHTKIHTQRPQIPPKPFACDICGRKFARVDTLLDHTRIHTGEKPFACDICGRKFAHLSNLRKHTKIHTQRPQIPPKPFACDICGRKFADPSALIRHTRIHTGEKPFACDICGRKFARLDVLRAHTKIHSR
Sequence of ZIM3 reprogrammed with array UBE4A T1F8 (Q96PE6 other isoform, or with tags, fused parts or gaps): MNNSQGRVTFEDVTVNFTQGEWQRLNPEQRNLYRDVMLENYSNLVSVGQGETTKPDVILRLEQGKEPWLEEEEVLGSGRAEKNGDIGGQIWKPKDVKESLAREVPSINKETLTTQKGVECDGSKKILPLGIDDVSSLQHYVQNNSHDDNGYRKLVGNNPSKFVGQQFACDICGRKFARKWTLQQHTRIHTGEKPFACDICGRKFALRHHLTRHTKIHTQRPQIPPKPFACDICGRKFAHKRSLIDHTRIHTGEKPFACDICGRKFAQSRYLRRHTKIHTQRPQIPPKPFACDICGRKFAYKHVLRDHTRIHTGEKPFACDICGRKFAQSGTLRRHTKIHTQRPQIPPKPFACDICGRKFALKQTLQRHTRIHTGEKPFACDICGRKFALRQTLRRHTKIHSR

B1: DPH1T2F8 (dsDNA)
DNA 1: CTGGTCGTATCCGGGGCAGCGGAGCAGG
DNA 2: CCTGCTCCGCTGCCCCGGATACGACCAG
binding signal [1]: ~0.67 relative expression (lower = more activity, repressor)

B2: UBE4A T1F8 (dsDNA)
DNA 1: GCTGCTGGCACTTCAGGCTCTGGTAAGA
DNA 2: TCTTACCAGAGCCTGAAGTGCCAGCAGC
binding signal [2]: ~0.57 relative expression (lower = more activity, repressor)

B3: CDKN1C_200 (dsDNA)
DNA 1: TTGAAACTGAAAATACTACATTATGCTA
DNA 2: TAGCATAATGTAGTATTTTCAGTTTCAA
binding signal [3]: ~17 relative expression (higher = more activity)
binding signal [4]: ~3.2 relative expression (higher = more activity)
binding signal [5]: ~11 relative expression (higher = more activity)

B4: eGFP site 18 (8 fingers) (dsDNA)
DNA 1: GCAGCACGACTTCTTCAAGTCCGCCATGCCCGAA
DNA 2: TTCGGGCATGGCGGACTTGAAGAAGTCGTGCTGC
binding signal [6]: ~70 % GFP-negative cells (higher = more activity)
binding signal [7]: ~47 % GFP-negative cells (higher = more activity)

B5: DPH1T2R8 (dsDNA)
DNA 1: CTGCTCCGCTGCCCCGGATACGACCAGC
DNA 2: GCTGGTCGTATCCGGGGCAGCGGAGCAG
binding signal [8]: ~0.77 relative expression (lower = more activity, repressor)

B6: eGFP site 12 (8 fingers) (dsDNA)
DNA 1: GAAGTTCATCTGCACCACCGGCAAGCTGCCCGTG
DNA 2: CACGGGCAGCTTGCCGGTGGTGCAGATGAACTTC
binding signal [9]: ~24 % GFP-negative cells (higher = more activity)
binding signal [10]: ~65 % GFP-negative cells (higher = more activity)
binding signal [11]: ~58 % GFP-negative cells (higher = more activity)

B7: DPH1TSSR (dsDNA)
DNA 1: CCTGCCTGCGCATGTGGTACTAAAAAGA
DNA 2: TCTTTTTAGTACCACATGCGCAGGCAGG
binding signal [12]: ~0.58 relative expression (lower = more activity, repressor)

B8: eGFP site 10 (8 fingers) (dsDNA)
DNA 1: TACGGCAAGCTGACCCTGAAGTTCATCTGCACCA
DNA 2: TGGTGCAGATGAACTTCAGGGTCAGCTTGCCGTA
binding signal [13]: ~38 % GFP-negative cells (higher = more activity)
binding signal [14]: ~59 % GFP-negative cells (higher = more activity)
binding signal [15]: ~28 % GFP-negative cells (higher = more activity)

B9: CDK125RC (dsDNA)
DNA 1: GCGGCCCGGCCCCCGCGCACCGCCCATTGGC
DNA 2: GCCAATGGGCGGTGCGCGGGGGCCGGGCCGC
binding signal (array CDKN1C 125RC): ~2.2 log2 fold change (RNA-seq) (higher = more activity)

B10: Rab1a T2R8 (dsDNA)
DNA 1: CTACTCCGTCCCCTAGAACACAATCAGC
DNA 2: GCTGATTGTGTTCTAGGGGACGGAGTAG
binding signal [16]: ~0.41 relative expression (lower = more activity, repressor)

B11: UBE4A T1R8 (dsDNA)
DNA 1: TGTCTTACCAGAGCCTGAAGTGCCAGCA
DNA 2: TGCTGGCACTTCAGGCTCTGGTAAGACA
binding signal [17]: ~0.22 relative expression (lower = more activity, repressor)

B12: DPH1_15 (dsDNA)
DNA 1: CCCGGATACGACCAGCGCCGCCATCACC
DNA 2: GGTGATGGCGGCGCTGGTCGTATCCGGG
binding signal [18]: ~0.62 relative expression (lower = more activity, repressor)
binding signal [19]: ~0.13 relative expression (lower = more activity, repressor)
binding signal [20]: ~0.67 relative expression (lower = more activity, repressor)
binding signal [21]: ~0.12 relative expression (lower = more activity, repressor)

Source: PMC10421740, “A universal deep-learning model for zinc finger design enables transcription factor reprogramming”
